Here are results for one substance from patent US20160108097A1.

Experiment in all cases: cell-based or functional assay
The target of experiment [1] is HIV-1 subtype B envelope QH0692.42 (HIV-1 subtype B).
The target of experiment [2] is GRFT-resistant envelope Du156R18 (R).
The target in experiment [3] is HIV-1 subtype B envelope CAAN5342.A2 (HIV-1 subtype B).
The target in experiment [4] is HIV-1 subtype C envelope Du179.14 (HIV-1 subtype C).
In experiment [5] the target is HIV-1 subtype B envelope PVO.4 (HIV-1 subtype B).
The target of experiment [6] is Env of HIV-1RF virus (HIV-1 RF).
In experiment [7] the target is HIV-1 subtype A envelope Q168.a2 (HIV-1 subtype A).
Experiment [8] has as its target HIV-1 subtype B envelope JR-FL (HIV-1 subtype B).
Experiment [9] addresses HIV-1 subtype C envelope Du156.12 (HIV-1 subtype C).
Experiment [10] concerns the target HIV-1 subtype A envelope Q23.17 (HIV-1 subtype A).
Experiment [11] has as its target GRFT-resistant envelope Du179 GRFT c17 (R).
For experiment [12], the target named is HIV-1 subtype C envelope DU151.2 (HIV-1 subtype C).
Experiment [13] addresses HIV-1 subtype C envelope COT6.15 (HIV-1 subtype C).
The target in experiment [14] is HIV-1 subtype C envelope CAP206.8 (HIV-1 subtype C).

griffithsin (GRFT), native domain-swapped dimer, sequence (P84801 whole entry X31A, the tested form may be a part): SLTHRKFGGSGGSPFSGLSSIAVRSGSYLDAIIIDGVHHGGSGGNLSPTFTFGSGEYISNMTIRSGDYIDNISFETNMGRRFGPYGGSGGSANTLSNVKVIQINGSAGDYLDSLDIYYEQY

For the substance “griffithsin (GRFT), native domain-swapped dimer (from UniProt P84801 1-121)”, the IC50 (pseudovirus neutralization, JC53bl-13 cells) came out at 0.0473 nM in experiment [1]; 9.14 nM in experiment [2]; 7.34 nM in [3]; 0.606 nM in [4]; 0.037 nM in experiment [5]; 3.8 nM in experiment [7]. In addition, the IC50 (pseudovirus neutralization, JC53bl-13 cells) in experiment [8] is 0.922 nM; in experiment [9], 0.0324 nM; in experiment [10], 1.19 nM; in experiment [12], 1.49 nM; in experiment [13] it was 0.734 nM; in experiment [14], 2.14 nM. Besides, in [2], the fold reduction in activity between the WT (Du156.12) and R viruses came out at 282 fold. The Anti-HIV EC50 (XTT cytopathicity assay, HIV-1RF, CEM-SS cells) in experiment [6] stood at 0.0138 nM. In experiment [11], this substance registered a fold reduction in activity between the WT (Du179.14) and R viruses above 82 fold.
